Target: His-TvCyP1 (Trichomonas vaginalis, UniProt A2DT06 1-173)
Test: ITC; 25°C

B1: His-Myb3^53–180 (domain or fragment)
chain: KGPFTEAEDDLIREYVKENGPQNWPRITSFLPNRSPKQCRERWFNHLDPAVVKHAWTPEEDETIFRNYLKLGSKWSVIAKLIPGRTDNAIKNRWNSSISKRISTNSNHKEILLPDRSKKRKAADVPKK
Kd: 2040 µM
